Results on 1 protein are retold here after PMC10876309, “Two Main Cancer Biomarkers as Molecular Targets of Binase Antitumor Activity” (BioMed Research International, 2024).

The data set concerns the molecule itself. The data set is described as follows: SDS-PAGE and western blot; binase in the immunoprecipitated samples, blotted with anti-binase antibodies; bands of 12 kDa and 25 kDa. (In general: A western blot detects proteins with antibodies after separation by electrophoresis.)

B1: binase, ribonuclease from Bacillus pumilus (enzyme, UniProt P00649 54-162, looked up)
chain: AVINTFDGVADYLIRYKRLPDNYITKSQASALGWVASKGNLAEVAPGKSIGGDVFSNREGRLPSASGRTWREADINYVSGFRNADRLVYSSDWLIYKTTDHYATFTRIR
notes: binase, ribonuclease of Bacillus pumilus, 12.3 kDa, pI 9.5; also called bacterial ribonuclease binase; cytotoxic ribonuclease from Bacillus pumilus; source: purified as described earlier [21, 22]
With B1, the binding result was “binds”.
